Source: patent publication US20150114310A1

Columns and labels:
Anti-roIFNT antibody [1] = assay: competitive RIA, unlabelled IFNT displacing 125I-roIFNT from the antibody; primary antibody at 1:60,000
Anti-roIFNT antibody [2] = assay: competitive RIA, unlabelled IFNT displacing 125I-roIFNT from the antibody; less dilute primary antibody

amount of ligand required to displace 50% binding (Anti-roIFNT antibody [1]): 0.4 ng
amount of ligand required to displace 50% binding (Anti-roIFNT antibody [2]): 1.5 ng
Substance: recombinant ovine IFNT (roIFNT) (ligand)
